Experimental data taken from US11912794B2, “Modulation of structured polypeptide specificity” (BicycleRD Limited, priority 2011, dated 2024).
Numbered stars: 1 amine (or outer) side, 2 acyl side, 3 side chain; on linkers, the order of the positions; unused ones are H or OH. Bridge positions count the residues as written; N and C are the ends. Peptide text beside a SMILES is read from it. TBMB = c1c(C[*:1])cc(C[*:3])cc1C[*:2]

These compounds were tested against T1, Biotinylated hPK (Homo sapiens, UniProt P03952) (assay: Phage selections, abundance of sequences in selection outputs). Conditions: randomised WPAR motif at positions 2, 3, 4 & 5 within the 06-34-03 sequence.
T1 construct: IHPKA, from human plasma; purchased Innovative Research, Novi, MI, USA IHPKA; host or cells: human plasma
Type: binding
Method: Glycerol stocks of phage libraries were diluted to OD600=0.1 in 500 ml 2YT/chloramphenicol (30 μg/ml) cultures and phage were produced at 30° C. over night (15-16 hrs). Phage were purified and chemically modified as described in Heinis, et al., Nat Chem Biol 2009, 5 (7), 502-7 Biotinylated hPK (3 μg) (IHPKA, from human plasma, Innovative Research, Novi, MI, USA) was incubated with 50 μl pre-washed magnetic streptavidin beads (Dynal, M-280 from Invitrogen, Paisley, UK) for 10 minutes at RT. […] Blocked beads were then mixed with the blocked chemically modified phage and incubated for 30 minutes on a rotating wheel at RT. Beads were washed 8 times with washing buffer containing 0.1% Tween 20 and twice with washing buffer before incubation with 100 μl of 50 mM glycine, pH 2.2 for 5 minutes. Eluted phage were transferred to 50 μl of 1 M Tris-Cl, pH 8 for neutralization, incubated with 30 ml TG1 cells at OD600=0.4 for 90 minutes at 37° C. and the cells were plated on large 2YT/chloramphenicol plates. One or two additional rounds of panning were performed using the same procedures. In the second round of selection, neutravidin-coated magnetic beads were used to prevent the enrichment of streptavidin-specific peptides. The neutravidin beads were prepared by reacting 0.8 mg neutravidin (Pierce, Rockford, IL, USA) with 0.5 ml tosyl-activated magnetic beads (Dynal, M-280 from Invitrogen, Paisley, UK) according to the supplier's instructions.
(§1) The WPAR (SEQ ID NO: 18) motif identified from Example 1 was analysed in the context of the 06-34-03 peptide, in order to identify alternatives or improvements to the WPAR (SEQ ID NO: 18) motif. A library was constructed where positions 1, 6, 7, 8, 9 &10 of 06-34-03 were fixed and positions 2, 3, 4 & 5 were randomised (see ‘Randomisation of peptide domains—Library construction’ in Methods above). Selections against human plasma Kallikrein were performed at a variety of stringencies (see Phage selections' in Methods above). All output sequences were identified and analysed for target binding (see ‘Randomisation of peptide domains—Assay of binding of individual clones’ in Methods above). Table 17 lists each unique sequence, its relative abundance in the selection output (frequency), and a rank number according to target binding strength.

T1 sequence (P03952 20-638): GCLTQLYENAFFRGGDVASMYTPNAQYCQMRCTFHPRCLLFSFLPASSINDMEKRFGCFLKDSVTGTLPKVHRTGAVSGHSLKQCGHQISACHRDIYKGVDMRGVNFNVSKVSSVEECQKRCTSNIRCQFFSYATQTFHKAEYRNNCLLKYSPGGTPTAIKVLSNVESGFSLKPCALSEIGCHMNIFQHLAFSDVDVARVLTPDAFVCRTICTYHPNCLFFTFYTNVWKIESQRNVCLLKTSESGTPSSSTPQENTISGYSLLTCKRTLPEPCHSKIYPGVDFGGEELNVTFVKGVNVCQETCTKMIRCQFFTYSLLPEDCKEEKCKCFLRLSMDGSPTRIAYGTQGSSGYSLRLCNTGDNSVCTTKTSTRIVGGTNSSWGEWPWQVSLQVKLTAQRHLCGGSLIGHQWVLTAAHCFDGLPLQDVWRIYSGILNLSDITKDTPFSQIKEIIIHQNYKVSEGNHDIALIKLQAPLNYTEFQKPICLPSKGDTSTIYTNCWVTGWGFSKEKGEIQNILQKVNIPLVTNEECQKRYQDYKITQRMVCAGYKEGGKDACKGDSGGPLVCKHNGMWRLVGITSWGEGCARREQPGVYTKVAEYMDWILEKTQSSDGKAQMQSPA

| Frequency (relative abundance in the total selection outputs) | Compound |
| --- | --- |
| 1 | SEQ ID NO: 87 (CSFPIRCTHQDLC; Synthetic sequence Kallikrein binder identified from selections using a randomised WPAR motif at positions 2, 3, 4 & 5 within the 06-34-03 sequence of PCT/EP2012/069898 (SEQ ID NO 58)) |

What follows are compounds tested against biotinylated human plasma Kallikrein (Homo sapiens, UniProt P03952) (assay: Phage binding assay of individual clones, randomisation of peptide domains). Conditions: not given.
From the text: Library construction: Small phage libraries were generated according to the methods of Heinis et al as described in ‘Cloning of phage libraries’ above. The sficx3ba primer was modified such that the bicycle-encoding portion was based on a parent 5×5 bicycle (5×5: two 5-residue loops) DNA sequence with only 4-6 codons randomized to NNS. The randomized codons were those encoding the peptide domain/motif of interest.
Assay of binding of individual clones: Library transformant colonies, or selection output colonies, were picked and grown as individual cultures in 2TY broth containing selective antibiotic. The picked colonies were DNA-sequenced using a QIAgen PyroMark Q96 DNA sequencer to reveal the amino-acid substitution present in each clone, and were assayed for human plasma Kallikrein binding as follows. The phage-containing supernatant was harvested from the culture and phage were cyclised with tris bromomethyl benzene(TBMB) based on the methods of Heinis et al (Nature Chemical Biology vol. 5 pp 502-507 (2009)). The purified phage from this process were assayed for binding to biotinylated human plasma Kallikrein using a homogeneous plate-based binding assay; assay read-out measured on a BMG Labtech Pherastar FS plate reader. The quantitative binding data from duplicate assay samples was averaged (mean) and expressed as signal:background. Assay data shown is representative of at least 2 independent experiments. The assay data was correlated with the peptide sequences.
as §1
Selections against human plasma Kallikrein were performed with this library in order to study the non-WPAR (SEQ ID NO: 18) determinants of Kallikrein binding, and to isolate the optimal WPAR (SEQ ID NO: 18)-containing peptide sequence. Over 150 selection output sequences were isolated and screened for binding to human plasma Kallikrein (as described in Methods above). The sequences were ranked in order of Kallikrein binding and the top 50 sequences were aligned in Table 19. […]

biotinylated human plasma Kallikrein, sequence (P03952 20-638): as above

| Kallikrein binding in target binding assay | Compound |
| --- | --- |
| one of the best sequences | CC(C)C[C@@H]1NC(=O)[C@H](CC(=O)O)NC(=O)[C@H](CCC(N)=O)NC(=O)[C@H](Cc2c[nH]cn2)NC(=O)[C@H]([C@@H](C)O)NC(=O)[C@@H]2CSCc3cc(cc(c3)CSC[C@@H](C(=O)N[C@@H](C)C(N)=O)NC1=O)CSC[C@H](NC(=O)[C@H](C)N)C(=O)N[C@@H](CO)C(=O)N[C@@H](Cc1c[nH]c3ccccc13)C(=O)N1CCC[C@H]1C(=O)N[C@@H](C)C(=O)N[C@@H](CCCNC(=N)N)C(=O)N2 [Peptide 06-34-03] (H-ACSWPARCTHQDLCA-NH2; linker 2-8-14 via TBMB; N-terminus and C-terminus assumed) |

Same assay, conditions: WPAR domain fixed, positions 1, 6, 7, 8, 9 & 10 randomised; top 50

| Rank (sequences ranked according to Kallikrein binding) | Compound |
| --- | --- |
| 46 | SEQ ID NO: 159 (CRWPARCTHTDLC; Synthetic sequence Kallikrein binder containing a WPAR motif) |
| 16 | SEQ ID NO: 129 (CMWPARCMHQDLC; Synthetic sequence Kallikrein binder containing a WPAR motif) |
| 29 | SEQ ID NO: 142 (CAWPARCTHYDLC; Synthetic sequence Kallikrein binder containing a WPAR motif) |
| 8 | SEQ ID NO: 121 (CQWPARCLHTDLC; Synthetic sequence Kallikrein binder containing a WPAR motif) |
| 9 | SEQ ID NO: 122 (CLWPARCTHQDLC; Synthetic sequence Kallikrein binder containing a WPAR motif) |
| 13 | SEQ ID NO: 126 (CSWPARCLHTDLC; Synthetic sequence Kallikrein binder containing a WPAR motif) |
| 38 | SEQ ID NO: 151 (CAWPARCLHQDWC; Synthetic sequence Kallikrein binder containing a WPAR motif) |
| 1 | SEQ ID NO: 115 (CNWPARCTHQDLC; Synthetic sequence Kallikrein binder containing a WPAR motif) |
| 21 | SEQ ID NO: 134 (CRWPARCTHQDLC; Synthetic sequence Kallikrein binder containing a WPAR motif) |
| 12 | SEQ ID NO: 125 (CAWPARCLHDDLC; Synthetic sequence Kallikrein binder containing a WPAR motif) |
| 44 | SEQ ID NO: 157 (CLWPARCLTTELC; Synthetic sequence Kallikrein binder containing a WPAR motif) |
| 33 | SEQ ID NO: 146 (CSWPARCLHTELC; Synthetic sequence Kallikrein binder containing a WPAR motif) |
| 31 | SEQ ID NO: 144 (CSWPARCTHTELC; Synthetic sequence Kallikrein binder containing a WPAR motif) |
| 32 | SEQ ID NO: 145 (CAWPARCMHDDLC; Synthetic sequence Kallikrein binder containing a WPAR motif) |
| 48 | SEQ ID NO: 161 (CSWPARCTHSDLC; Synthetic sequence Kallikrein binder containing a WPAR motif) |
| 42 | SEQ ID NO: 155 (CSWPARCVHQDMC; Synthetic sequence Kallikrein binder containing a WPAR motif) |
